This passage reports Kd results from publication PMC3544317 (2014).

The term Kd denotes a measure of binding affinity in units of concentration. A high value points to weaker binding.

Assay [1] has as its target T1, FVa (FVa2) (Homo sapiens, UniProt P12259).
T1 chain 1: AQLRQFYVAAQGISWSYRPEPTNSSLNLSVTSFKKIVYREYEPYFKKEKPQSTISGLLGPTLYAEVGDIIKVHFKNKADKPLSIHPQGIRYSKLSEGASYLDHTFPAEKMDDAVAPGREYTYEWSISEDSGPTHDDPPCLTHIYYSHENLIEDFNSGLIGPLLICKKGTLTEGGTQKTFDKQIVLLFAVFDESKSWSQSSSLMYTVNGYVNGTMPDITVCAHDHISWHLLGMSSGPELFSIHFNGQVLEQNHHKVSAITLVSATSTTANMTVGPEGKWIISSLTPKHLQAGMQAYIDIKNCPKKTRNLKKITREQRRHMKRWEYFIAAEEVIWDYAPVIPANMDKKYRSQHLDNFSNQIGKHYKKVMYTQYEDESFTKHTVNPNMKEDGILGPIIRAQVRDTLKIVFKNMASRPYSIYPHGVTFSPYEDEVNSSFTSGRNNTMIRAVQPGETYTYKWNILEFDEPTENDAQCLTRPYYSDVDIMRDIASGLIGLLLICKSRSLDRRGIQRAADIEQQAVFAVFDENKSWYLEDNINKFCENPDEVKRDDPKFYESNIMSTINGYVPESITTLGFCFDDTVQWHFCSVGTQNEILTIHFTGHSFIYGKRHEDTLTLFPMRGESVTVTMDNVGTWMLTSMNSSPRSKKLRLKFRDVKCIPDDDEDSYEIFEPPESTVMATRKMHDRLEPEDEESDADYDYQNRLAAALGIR
T1 chain 2: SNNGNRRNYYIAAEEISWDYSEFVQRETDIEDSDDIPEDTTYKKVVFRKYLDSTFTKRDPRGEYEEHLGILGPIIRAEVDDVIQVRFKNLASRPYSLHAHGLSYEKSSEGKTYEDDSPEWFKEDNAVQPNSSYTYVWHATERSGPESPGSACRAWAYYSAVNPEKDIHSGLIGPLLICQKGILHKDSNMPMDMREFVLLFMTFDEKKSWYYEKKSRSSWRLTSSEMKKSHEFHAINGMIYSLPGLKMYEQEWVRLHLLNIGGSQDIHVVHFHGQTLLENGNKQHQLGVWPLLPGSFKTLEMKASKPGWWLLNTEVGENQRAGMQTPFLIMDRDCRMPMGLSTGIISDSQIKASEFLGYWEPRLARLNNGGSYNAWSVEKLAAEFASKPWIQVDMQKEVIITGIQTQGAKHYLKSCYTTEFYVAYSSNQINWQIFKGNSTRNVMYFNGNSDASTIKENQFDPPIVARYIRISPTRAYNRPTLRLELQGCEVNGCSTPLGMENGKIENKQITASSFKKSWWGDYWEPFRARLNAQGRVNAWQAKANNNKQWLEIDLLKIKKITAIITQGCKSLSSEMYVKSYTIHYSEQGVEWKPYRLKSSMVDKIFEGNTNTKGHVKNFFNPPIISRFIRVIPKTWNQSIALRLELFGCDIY
The assay is described as follows: global fit of activity.

Assay [2] deals with T1, FVa (FVa2). Kind of assay: global fit of activity, dimer competition model.
For assay [3], the target named is T1, FVa (FVa2). The assay is described as follows: prothrombinase activity titration.
Assay [4] has as its target T1, FVa (FVa2). The assay is described as follows: prothrombinase activity titration.
The next assay deals with T2, FXa (Homo sapiens, UniProt P00742).
T2 chain 1: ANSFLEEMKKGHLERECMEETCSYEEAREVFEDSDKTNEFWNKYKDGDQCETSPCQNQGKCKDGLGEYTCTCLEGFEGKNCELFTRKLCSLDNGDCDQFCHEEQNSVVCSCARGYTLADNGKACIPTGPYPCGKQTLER
T2 chain 2: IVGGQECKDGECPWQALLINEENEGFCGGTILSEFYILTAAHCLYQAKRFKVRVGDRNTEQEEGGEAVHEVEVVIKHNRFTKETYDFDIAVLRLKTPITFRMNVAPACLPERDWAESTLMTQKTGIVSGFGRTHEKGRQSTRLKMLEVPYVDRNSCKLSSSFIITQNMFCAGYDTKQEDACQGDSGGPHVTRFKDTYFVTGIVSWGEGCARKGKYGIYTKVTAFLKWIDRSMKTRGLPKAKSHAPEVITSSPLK
The assay is described as follows: prothrombin activation rate vs FXa.

Assay [5] has as its target T1, FVa (FVa2). The assay is described as follows: prothrombinase activity titration.
A further assay concerns the target T3, DEGR-FXa (Homo sapiens, UniProt P00742).
T3 chain 1: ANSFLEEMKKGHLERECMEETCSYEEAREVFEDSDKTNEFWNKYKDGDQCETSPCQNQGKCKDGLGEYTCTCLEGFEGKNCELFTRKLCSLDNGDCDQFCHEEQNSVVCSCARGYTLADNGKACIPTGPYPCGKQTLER
T3 chain 2: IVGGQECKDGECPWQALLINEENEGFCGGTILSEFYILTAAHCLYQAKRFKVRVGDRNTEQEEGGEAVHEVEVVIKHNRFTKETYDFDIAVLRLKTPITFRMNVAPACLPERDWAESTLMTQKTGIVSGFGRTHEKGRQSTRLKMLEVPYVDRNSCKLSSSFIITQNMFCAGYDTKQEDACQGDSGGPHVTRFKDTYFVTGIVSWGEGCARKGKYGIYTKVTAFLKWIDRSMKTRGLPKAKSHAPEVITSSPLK
Kind of assay: fluorescence of active-site-labeled FXa.

B1: FXa (protein)
chain 1: ANSFLEEMKKGHLERECMEETCSYEEAREVFEDSDKTNEFWNKYKDGDQCETSPCQNQGKCKDGLGEYTCTCLEGFEGKNCELFTRKLCSLDNGDCDQFCHEEQNSVVCSCARGYTLADNGKACIPTGPYPCGKQTLER
chain 2: IVGGQECKDGECPWQALLINEENEGFCGGTILSEFYILTAAHCLYQAKRFKVRVGDRNTEQEEGGEAVHEVEVVIKHNRFTKETYDFDIAVLRLKTPITFRMNVAPACLPERDWAESTLMTQKTGIVSGFGRTHEKGRQSTRLKMLEVPYVDRNSCKLSSSFIITQNMFCAGYDTKQEDACQGDSGGPHVTRFKDTYFVTGIVSWGEGCARKGKYGIYTKVTAFLKWIDRSMKTRGLPKAKSHAPEVITSSPLK
modifications: C6PS, 5 mM Ca2+
Consider B1, for which the Kd in the assay with FVa (FVa2) [1] is 0.43 nM; in the assay with FVa (FVa2) [2] it was 0.32 nM; with FVa (FVa2) [3], 43 nM; with FVa (FVa2) [4], 20 nM; with FXa, 16 nM; with FVa (FVa2) [5] it was 2.2 nM.

B2: FXa (protein)
chain 1: ANSFLEEMKKGHLERECMEETCSYEEAREVFEDSDKTNEFWNKYKDGDQCETSPCQNQGKCKDGLGEYTCTCLEGFEGKNCELFTRKLCSLDNGDCDQFCHEEQNSVVCSCARGYTLADNGKACIPTGPYPCGKQTLER
chain 2: IVGGQECKDGECPWQALLINEENEGFCGGTILSEFYILTAAHCLYQAKRFKVRVGDRNTEQEEGGEAVHEVEVVIKHNRFTKETYDFDIAVLRLKTPITFRMNVAPACLPERDWAESTLMTQKTGIVSGFGRTHEKGRQSTRLKMLEVPYVDRNSCKLSSSFIITQNMFCAGYDTKQEDACQGDSGGPHVTRFKDTYFVTGIVSWGEGCARKGKYGIYTKVTAFLKWIDRSMKTRGLPKAKSHAPEVITSSPLK
modifications: C6PS, 3 mM Ca2+
Consider B2, for which the Kd with FVa (FVa2) [3] turned out to be 8 nM; with FVa (FVa2) [5] it was 1.7 nM.

B3: DEGR-FXa (protein)
chain 1: ANSFLEEMKKGHLERECMEETCSYEEAREVFEDSDKTNEFWNKYKDGDQCETSPCQNQGKCKDGLGEYTCTCLEGFEGKNCELFTRKLCSLDNGDCDQFCHEEQNSVVCSCARGYTLADNGKACIPTGPYPCGKQTLER
chain 2: IVGGQECKDGECPWQALLINEENEGFCGGTILSEFYILTAAHCLYQAKRFKVRVGDRNTEQEEGGEAVHEVEVVIKHNRFTKETYDFDIAVLRLKTPITFRMNVAPACLPERDWAESTLMTQKTGIVSGFGRTHEKGRQSTRLKMLEVPYVDRNSCKLSSSFIITQNMFCAGYDTKQEDACQGDSGGPHVTRFKDTYFVTGIVSWGEGCARKGKYGIYTKVTAFLKWIDRSMKTRGLPKAKSHAPEVITSSPLK
modifications: DEGR active-site label, C6PS, 3 mM Ca2+
On to B3, for which, in the assay with DEGR-FXa, the Kd is 600 nM.
